# B1: SET domain-containing protein 3 (Saccharomyces cerevisiae), P36124 (parent)
# chain: MSVPNSKEQSLLDDASTLLLFSKGKKRAEEASKIGSKTDTIEHDESHEREKKGAIEMAAAALATASTVSLPLKKATEQSAAEAATSTAAKEETENQPQKQPQWPVPDSYIVDPDAGIITCICDLNDDDGFTIQCDHCNRWQHAICYGIKDIGMAPDDYLCNSCDPREVDINLARKIQQERINVKTVEPSSSNNSASNKNNGRDRASSTTISDVGDSFSTDQDNTNHRDKRRKRNPSNNSIDSKNESASVNSSDGLTSMPKKKEHFLSAKDAYGAIYLPLKDNVFKSDLIEPFLNKHMDDNWVIQYPHKTFKSVSIEVKPYADIAYSRTYPGFTKLGVYLKKDCIKGDFIQEILGELDFYKNYLTDPRNHYRIWGTAKRRVIFHSHWPIYIDARLSGNSTRYLRRSCQPNVELVTIKLQDTDNRNDKSSGRKSSRIKFVLRALRDISEDEELYIKWQWDSKHPILKLIKGMTIDSLDDLERYGLINSVETILSNGECGCGNNSKDCYLLKVKRYAQSLYKSVKSRGKMNNRYKLNEILNQYNCKKRREPPILHRLEEKAQNTIERAPILLNNFYRQKFLNRNNGPKIPQKNTIDSTNNPDDIAKPFKFALFAQHSSNISVPKKNETSEKPLIITKSTDYDESHITNIEELPIPVLLPINKTSRQTANDVEESQSKNEHKLSRTPSLSNFNKELSKEAQHSQAKTKEIMTEASVNSRRESTPESIMHLSDFSSSQLHSKKKLSFADYRKKLLK
# Variants of: B1
# Conditions: with h4_yeast HHF1, P02309
row,effect of a mutation on the interaction,Variant
1,decreasing interaction,W140A

# Reference: IntAct's records for PubMed 19379692
